Patent US20150152192A1 (SAMSUNG ELECTRONICS, published 2015)

T1: Ang2 with P452 mutated with alanine, tagged with FLAG (human, UniProt O15123 19-496, limits assumed)
T1 sequence: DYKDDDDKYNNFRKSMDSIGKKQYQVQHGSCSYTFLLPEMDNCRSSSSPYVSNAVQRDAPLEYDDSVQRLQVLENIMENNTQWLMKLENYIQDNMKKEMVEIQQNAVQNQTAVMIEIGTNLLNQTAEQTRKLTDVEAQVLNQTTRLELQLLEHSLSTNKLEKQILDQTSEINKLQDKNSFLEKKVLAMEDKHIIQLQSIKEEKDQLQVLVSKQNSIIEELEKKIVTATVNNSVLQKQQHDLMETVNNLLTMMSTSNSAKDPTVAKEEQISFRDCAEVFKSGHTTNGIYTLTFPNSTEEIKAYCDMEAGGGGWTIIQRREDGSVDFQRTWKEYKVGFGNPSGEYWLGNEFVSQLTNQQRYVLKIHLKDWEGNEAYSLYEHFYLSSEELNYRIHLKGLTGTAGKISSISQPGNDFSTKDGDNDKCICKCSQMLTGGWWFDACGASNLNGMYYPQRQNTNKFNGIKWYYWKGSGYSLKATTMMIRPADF

T2: Ang2 with K468 mutated with alanine, tagged with FLAG (human, UniProt O15123 19-496, limits assumed)
T2 sequence: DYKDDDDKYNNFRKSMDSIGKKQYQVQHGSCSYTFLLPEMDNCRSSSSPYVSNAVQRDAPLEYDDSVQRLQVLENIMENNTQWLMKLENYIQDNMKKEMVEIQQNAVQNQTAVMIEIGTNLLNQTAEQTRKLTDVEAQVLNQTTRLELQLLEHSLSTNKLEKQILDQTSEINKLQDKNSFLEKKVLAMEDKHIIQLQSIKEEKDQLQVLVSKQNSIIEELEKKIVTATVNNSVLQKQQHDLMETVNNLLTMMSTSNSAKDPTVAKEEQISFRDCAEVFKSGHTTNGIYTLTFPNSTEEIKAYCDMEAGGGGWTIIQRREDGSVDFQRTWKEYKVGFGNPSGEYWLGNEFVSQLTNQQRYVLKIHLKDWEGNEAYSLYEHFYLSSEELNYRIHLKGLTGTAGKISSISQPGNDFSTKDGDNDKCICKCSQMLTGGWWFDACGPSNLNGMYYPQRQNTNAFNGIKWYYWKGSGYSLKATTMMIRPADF

T3: human Ang2 polypeptide (R&D systems; Accession #O15123; SEQ ID NO: 172) (human, UniProt O15123 19-496)
T3 construct: Bought protein; also called hAng2; human Ang2 protein
T3 sequence: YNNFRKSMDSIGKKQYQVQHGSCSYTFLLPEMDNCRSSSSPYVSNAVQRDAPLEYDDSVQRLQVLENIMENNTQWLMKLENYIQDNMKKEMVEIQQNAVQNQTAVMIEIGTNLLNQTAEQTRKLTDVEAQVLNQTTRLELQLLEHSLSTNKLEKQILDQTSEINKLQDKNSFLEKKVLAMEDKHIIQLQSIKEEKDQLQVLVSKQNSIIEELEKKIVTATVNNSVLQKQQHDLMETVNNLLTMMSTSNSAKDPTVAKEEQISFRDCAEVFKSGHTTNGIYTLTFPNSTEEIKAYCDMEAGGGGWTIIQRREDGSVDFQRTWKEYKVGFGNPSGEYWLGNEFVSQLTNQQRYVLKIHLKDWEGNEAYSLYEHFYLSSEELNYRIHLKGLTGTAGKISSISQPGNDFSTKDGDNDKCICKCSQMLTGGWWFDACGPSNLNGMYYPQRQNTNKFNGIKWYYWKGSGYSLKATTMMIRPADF


Tests used:
[1] = target: Ang2 with A449 mutated with alanine, tagged with FLAG (human) (UniProt O15123); experiment: ELISA, scFv coated, 250 ng FLAG-tagged Ang2 mutant, anti-FLAG-HRP
Sequence of Ang2 with A449 mutated with alanine, tagged with FLAG (human) (O15123 other isoform, or with tags, fused parts or gaps, change not shown): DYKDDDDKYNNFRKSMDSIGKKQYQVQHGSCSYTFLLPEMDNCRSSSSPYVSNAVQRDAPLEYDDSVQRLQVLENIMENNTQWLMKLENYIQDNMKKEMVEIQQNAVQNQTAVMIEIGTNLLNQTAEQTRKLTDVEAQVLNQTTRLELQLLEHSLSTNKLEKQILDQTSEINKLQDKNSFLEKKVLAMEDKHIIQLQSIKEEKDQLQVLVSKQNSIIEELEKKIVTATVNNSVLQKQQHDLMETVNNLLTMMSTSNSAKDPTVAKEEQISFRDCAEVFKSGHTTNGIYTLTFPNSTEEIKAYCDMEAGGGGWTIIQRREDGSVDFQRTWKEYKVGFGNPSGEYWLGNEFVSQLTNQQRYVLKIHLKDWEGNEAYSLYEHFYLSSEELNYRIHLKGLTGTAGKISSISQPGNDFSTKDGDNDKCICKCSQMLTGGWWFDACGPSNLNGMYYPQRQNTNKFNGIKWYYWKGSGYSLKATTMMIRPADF

[2] = target: T1, Ang2 with P452 mutated with alanine, …; experiment: as above
Experimental: (§1) A 96-well MaxiSorp™ flat-bottom plate (Nunc) was coated with 50 μl of the anti-Ang2 scFv selected above. After that, the plate was washed five times with 0.05% (v/v) Tween-20-containing PBS and then blocked with 1% (v/v) BSA-containing PBS at a room temperature for 2 hours. […] Thereafter, the plate was washed five times with 0.05% Tween-20-containing PBS and then, an HRP-conjugated anti-FLAG antibody (SIGMA) diluted in 1% (v/v) BSA-containing PBS at 1:5,000 ratio (v/v) was added in the amount of 50 μl to each well to react at a room temperature for 1 hour, followed by washing five times with 0.1% (v/v) Tween-20-containing PBS.
(§2) Finally, 100 μl of TMB substrate (cell signal) was added to each well of the plate to induce color development and then, the reaction was ceased by the addition of 50 μl of 5N H₂SO₄ solution and OD450 values were measured on a plate reader (Molecular Devices).

[3] = target: T2, Ang2 with K468 mutated with alanine, …; experiment: as above
Experimental: as §1, §2

[4] = target: T3, human Ang2 polypeptide (R&D systems; …); experiment: ELISA, antigen coated, scFv, anti-HA-HRP; 50% binding concentration (Kd)
Experimental: To measure binding of the antibodies prepared above with each antigen, ELISA was performed. A 96-well MaxiSorp™ flat-bottom plate (Nunc) was coated with 5˜20 μg/ml of human Ang2 and mouse Ang2 (Accession # NP_{—}031452) (both, R&D Systems). After that, the plate was washed five times with 0.05% (v/v) Tween-20-containing PBS and then blocked with 1% (v/v) BSA-containing PBS at a room temperature for 2 hours. The anti-Ang2 antibodies in their scFv forms prepared above were added to each well of the plate which was then allowed to react at a room temperature for 2 hours.
Thereafter, the plate was washed five times with 0.05% Tween-20-containing PBS and then, an HRP-conjugated anti-HA (HA-probe Antibody (F-7) HRP conjugated) antibody (Santacruz) diluted in 1% (v/v) BSA-containing PBS at 1:1,000 ratio (v/v) was added in the amount of 50 μl to each well to react at a room temperature for 1 hour, followed by washing five times with 0.1% (v/v) Tween-20-containing PBS. Finally, 100 μl of TMB substrate (cell signal) was added to each well of the plate to induce color development at a room temperature for 3 min and then, the reaction was ceased by the addition of 50 μl of 5N H₂SO₄ solution and OD450 values were measured on a plate reader (Molecular Devices).

| Binder | Relative binding (%) with Mutant Ang2 compared to the binding with native Ang2 [1] | Relative binding (%) with Mutant Ang2 compared to the binding with native Ang2 [2] | Relative binding (%) with Mutant Ang2 compared to the binding with native Ang2 [3] | Kd [4] |
| --- | --- | --- | --- | --- |
| SAIT-ANG-2-AB-2-E6 (scFv form) (scFv, V domains shown, scFv from a phage display library, partly purified from E. coli periplasm on Ni-NTA and detected with anti-HA) VH: EVQLLESGGGLVQTGGSLRLSCAASGFTFSDYAMSWVRQAPGKGLEWVSAIYPDSGNKYYADSVKGRFTISRDNSKNTLYLQMNSLRAEDTAVYYCARHSSDPKVKSGYYDDGMDVWGQGTLVAVSS VL: QSVLTQPPSASGTPGQRVTISCSGSSSNIGNNAVNWYQQLPGTAPKLLIYADSNRPSGVPDRFSGSKSGTSASLAISGLRSEDEADYYCGSWDYSLSGYVFGGGTKLTVLG | 3.3% | 24% | 94% | 9.3 nM |
| SAIT-ANG-2-AB-4-F5 (scFv form) (scFv, V domains shown, scFv from a phage display library) VH: EVQLLESGGGLVQPGGSLRLSCAASGFTFSDYDMSWVRQAPGKGLEWVSSISHGDSNKYYADSVKGRFTISRDNSKNTLYLQMNSLRAEDTAVYYCAKSSGIQESPPTYYYYGMDVWGQGTLVTVSS VL: QSVLTQPPSASGTPGQRVTISCSGSSSNIGSNAVNWYQQLPGTAPKLLIYADSNRPSGVPDRFSGSKSGTSASLAISGLRSEDEADYYCGSWDYSLSGYVFGGGTKLTVLG | 14% | 15% | 87.4% | 12.1 nM |
| SAIT-ANG-2-AB-3-D3 (scFv form) (scFv, V domains shown, scFv from a phage display library) VH: EVQLLESGGGLVQPGGSLRLSCAASGFTFSDYDMSWVRQAPGKGLEWVSGISSDDGNTYYADSVKGRFTISRDNSKNTLYLQMNSLRAEDTAVYYCARPTIDKYTLRGYYSYGMDVWGQGTLVTVSS VL: QSVLTQPPSASGTPGQRVTISCTGSSSNIGSNYVSWYQQLPGTAPKLLIYSDNKRPSGVPDRFSGSKSGTSASLAISGLRSEDEADYYCGTWDDSLNGYVFGGGTKLTVLG | 101% | 97.3% | 95.9% | 4.3 nM |
| SAIT-ANG-2-AB-4-F11 (scFv form) (scFv, V domains shown, scFv from a phage display library) VH: EVQLLESGGGLVQTGGSLRLSCAASGFTFSDYAMSWVRQAPGKGLEWVSSIYPDDGNTYYADSVKGRFTISRDNSKNTLYLQMNSLRAEDTAVYYCAKHPVRLNLHPMYYYYGMDVWGQGTLVTVSS VL: QSVLTQPPSASGTPGQRVTISCTGSSSNIGNNAVSWYQQLPGTAPKLLIYSDSQRPSGVPDRFSGSKSGTSASLAISGLRSEDEADYYCATWDYSLSAYVFGGGTKLTVLG | 16.7% | 91.6% | 102% | 3 nM |
| SAIT-ANG-2-AB-4-C11 (scFv form) (scFv, V domains shown, scFv from a phage display library) VH: EVQLLESGGGLVQPGGSLRLSCAASGFTFSDYAMSWVRQAPGKGLEWVSSIYPDDGNTYYADSVKGRFTISRDNSKNTLYLQMNSLRAEDTAVYYCARHTSHHTSIDGYYYYGMDGWGQGTLVTVSS VL: QSVLTQPPSASGTPGQRVTISCTGSSSNIGNNDVSWYQQLPGTAPKLLIYSDSKRPSGVPDRFSGSKSGTSASLAISGLRSEDEADYYCGSWDYSLSGYVFGGGTKLTVLG | 4.8% | 70% | 94.8% | 4.9 nM |
| SAIT-ANG-2-AB-8-A5 (scFv form) (scFv, V domains shown, scFv from a phage display library) VH: EVQLLESGGGLVQPGGSLRLSCAASGFTFSDYYMSWVRQAPGKGLEWVSGIYPSGGSTYYADSVKGRFTISRDNSKNTLYLQMNSLRAEDTAVYYCARDPSTLTYAGFDYWGQGTLVTVSS VL: QSVLTQPPSASGTPGQRVTISCSGSSSNIGNNYVTWYQQLPGTAPKLLIYADSHRPSGVPDRFSGSKSGTSASLAISGLRSEDEADYYCATWDYSLSGYVFGGGTKLTVLG |  | 86.5% | 101% | 5.3 nM |
| SAIT-ANG-2-AB-7-C9 (scFv form) (scFv, V domains shown, scFv from a phage display library) VH: EVQLLESGGGLVQPGGSLRLSCAASGFTFSNYAMSWVRQAPGKGLEWVSAISSGGGNIYYADSVKGRFTISRDNSKNTLYLQMNSLRAEDTAVYYCAKSGIQPSPPSMSSAYAMDVWGQGTLVTVSS VL: QSVLTQPPSASGTPGQRVTISCSGSSSNIGNNDVYWYQQLPGTAPKLLIYANSHRPSGVPDRFSGSKSGTSASLAISGLRSEDEADYYCGTWDYSLSGYVFGGGTKLTVLG | 14.5% | 85% | 97.3% | 3.8 nM |
